± gives the standard deviation of the averaged measurements.
Legend:
[1] = system: Saccharomyces cerevisiae; experiment: protein stability index of tFT-peptide fusion (C-terminal peptide) (PSI (0-1 scale)); higher = more stable (slower turnover)
Procedure: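 MPS profiling in S. cerevisiae of the tFT-X12 degron library: putative degron peptides plus stable controls, 12 aa, fused to the C-terminus of a sfGFP-mCherry timer. Cells are FACS-sorted into 8 mCherry/sfGFP bins and deep-sequenced. PSI runs from 0 (unstable) to 1 (stable). Backgrounds are wild type, das1Δ and doa10Δ at 30 °C, and wild type, das1Δ, cdc34-1 and cdc53-1 at 37 °C; 2-3 technical replicates each.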

[2] = system: Saccharomyces cerevisiae; experiment: as above; conditions: genetic background: wild type; temperature: 30 C
[3] = genetic background: cdc34-1, temperature: 37 C
[4] = genetic background: cdc53-1, temperature: 37 C
[5] = genetic background: das1 deletion, temperature: 30 C
[6] = genetic background: das1 deletion, temperature: 37 C
[7] = genetic background: doa10 deletion, temperature: 30 C
[8] = genetic background: wild type, temperature: 30 C
[9] = genetic background: wild type, temperature: 37 C
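Also: PSI is a weighted mean of sequencing reads over stability bins, variants kept only with over 10 reads, mCherry proximal and sfGFP distal, peptide attached via GGGS linker.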

Sequence | protein stability index [1, 3] | protein stability index [1, 4] | protein stability index [1, 5] | protein stability index [1, 6] | protein stability index [1, 7] | protein stability index [1, 8] | protein stability index [1, 9] | protein stability index [2]
AVVCSRLVLFCL | 0.591 ± 0.042 | 0.609 ± 0.021 | 0.53 ± 0.016 | 0.6322 ± 0.0018 | 0.433 ± 0.018 | 0.446 ± 0.025 | 0.588 ± 0.021 | 0.512 ± 0.026
CALLLLSVRAGQ | 0.5373 ± 0.00093 | 0.57 ± 0.02 | 0.432 ± 0.04 | 0.5912 ± 0.0029 | 0.415 ± 0.032 | 0.433 ± 0.024 | 0.565 ± 0.02 | 0.474 ± 0.019
CCSRFLMLRILV | 0.197 ± 0.062 | 0.208 ± 0.015 | 0.287 ± 0.041 | 0.438 ± 0.026 | 0.118 ± 0.0037 | 0.1 ± 0.0099 | 0.126 ± 0.0093 | 0.146 ± 0.014
CFFFCSLFLSFL | 0.439 ± 0.022 | 0.452 ± 0.011 | 0.436 ± 0.022 | 0.498 ± 0.01 | 0.4065 ± 0.001 | 0.35 ± 0.0098 | 0.431 ± 0.015 | 0.3662 ± 0.0032
CFFMVGFVFYFV | 0.286 ± 0.031 | 0.412 ± 0.027 | 0.291 ± 0.039 | 0.505 ± 0.017 | 0.288 ± 0.014 | 0.294 ± 0.03 | 0.438 ± 0.0094 | 0.296 ± 0.014
CFFSLLLLIFSV | 0.4101 ± 0.0016 | 0.412 ± 0.024 | 0.311 ± 0.041 | 0.4838 ± 0.0022 | 0.3486 ± 0.0032 | 0.31 ± 0.017 | 0.4476 ± 0.0032 | 0.377 ± 0.032
CFLLVSLGILCW | 0.0312 ± 0.00089 | 0.0425 ± 0.02 | 0.109 ± 0.036 | 0.121 ± 0.003 | 0.0685 ± 0.035 | 0.106 ± 0.034 | 0.0931 ± 0.026 | 0.176 ± 0.094
CFPFYVSCLLVL | 0.3061 ± 0.0023 | 0.311 ± 0.0064 | 0.281 ± 0.029 | 0.405 ± 0.019 | 0.25 ± 0.0066 | 0.256 ± 0.02 | 0.351 ± 0.0055 | 0.321 ± 0.027
CFTLSLCLAFFF | 0.41 ± 0.026 | 0.455 ± 0.013 | 0.403 ± 0.03 | 0.433 ± 0.0072 | 0.324 ± 0.017 | 0.334 ± 0.026 | 0.4091 ± 0.0024 | 0.377 ± 0.014
CGLLSALSCLVF | 0.507 ± 0.033 | 0.54 ± 0.011 | 0.442 ± 0.019 | 0.5533 ± 0.0036 | 0.4185 ± 0.0022 | 0.45 ± 0.017 | 0.552 ± 0.023 | 0.511 ± 0.02
CIVFVYCLFSCP | 0.206 ± 0.0051 | 0.301 ± 0.038 | 0.213 ± 0.024 | 0.406 ± 0.041 | 0.209 ± 0.0024 | 0.207 ± 0.036 | 0.332 ± 0.027 | 0.32 ± 0.0041
CKRWGVVSYVFV | 0.601 ± 0.069 | 0.6545 ± 0.0054 | 0.464 ± 0.025 | 0.655 ± 0.0067 | 0.418 ± 0.025 | 0.441 ± 0.024 | 0.61 ± 0.0099 | 0.493 ± 0.017
CLCFFLICFILF | 0.252 ± 0.0092 | 0.255 ± 0.011 | 0.235 ± 0.019 | 0.391 ± 0.027 | 0.248 ± 0.0026 | 0.219 ± 0.032 | 0.333 ± 0.016 | 0.3151 ± 0.002
CLCFFMSILWWV | 0.4741 ± 0.0038 | 0.498 ± 0.017 | 0.434 ± 0.035 | 0.5222 ± 0.0016 | 0.422 ± 0.015 | 0.374 ± 0.019 | 0.478 ± 0.0048 | 0.4269 ± 0.0011
CLCVLVSFFFGL | 0.41 ± 0.037 | 0.489 ± 0.041 | 0.35 ± 0.024 | 0.5006 ± 0.0024 | 0.316 ± 0.024 | 0.323 ± 0.027 | 0.4768 ± 0.0016 | 0.288 ± 0.074
CLFHQFITLLVN | 0.0942 ± 0.009 | 0.177 ± 0.012 | 0.222 ± 0.026 | 0.2692 ± 0.0019 | 0.0508 ± 0.017 | 0.0593 ± 0.0052 | 0.0523 ± 0.01 | 0.0965 ± 0.019
CLFLNCRFYMFL | 0.951 ± 0.021 | 0.898 ± 0.065 | 0.808 ± 0.04 | 0.89 ± 0.024 | 0.788 ± 0.014 | 0.796 ± 0.036 | 0.905 ± 0.011 | 0.821 ± 0.035
CLFSPFCFILFC | 0.0319 ± 0.013 | 0.0391 ± 0.0022 | 0.0898 ± 0.0084 | 0.11 ± 0.012 | 0.285 ± 0.021 | 0.074 ± 0.011 | 0.0686 ± 0.019 | 0.12318 ± 9.1e-05
CLTGWFGIFSAP | 0.708 ± 0.019 | 0.755 ± 0.025 | 0.678 ± 0.016 | 0.763 ± 0.02 | 0.695 ± 0.015 | 0.688 ± 0.027 | 0.737 ± 0.015 | 0.7344 ± 0.0021

Source: the supplement of paper PMC10724198
